Measured values as given in publication doi:10.1101/2022.02.02.478753.

Target: holoTvFDPF3, highly active Class F flavodiiron protein 3 from Trichomonas vaginalis (TVAG_121610) (Trichomonas vaginalis)
Assay: cryo-EM structure

stoichiometry N: 2
Substance: holoTvFDPF3, highly active Class F flavodiiron protein 3 from Trichomonas vaginalis (TVAG_121610) (enzyme)
